Source: patent US20190248888A1, “METHODS OF LOWERING BLOOD GLUCOSE LEVELS” (Regeneron Pharmaceuticals, Inc., priority 2016, published 2019)

Key:
Slc38a5 in α-cells = experiment: Slc38a5 RNA in situ hybridization and immunofluorescence of pancreas sections; type: in vivo, mouse
Excerpt: Formalin fixed mouse pancreatic sections were permeabilized and hybridized with custom made mRNA probes to glucagon and mouse Slc38a5 (ACD BIO). Following probe hybridization and amplification, Slc38a5 mRNA was detected using red chromogen and glucagon mRNA with green chromogen (RNAscope 2.5 HD Duplex Reagent Kit) and images were obtained using a Zeiss Axio Scan.Z1 slide scanner (Zeiss).

Slc38a5−/− mice = experiment: GCGR antibody in Slc38a5−/− mice and wildtype littermates; type: in vivo, mouse; settings: 10 mg/kg weekly, 20 days
Method: Mice deficient in Slc38a5 (100% C57BL/6NTac) were generated by homologous recombination using Regeneron's VelociGene technology (Valenzuela et al., 2003, Nat Biotechnol 21:652-659). VelociGene allele identification number is VG15016. Both male and female mice were used for the study. […] Slc38a5^−/− mice and wildtype littermates were dosed with GCGR or control antibody (10 mg/kg; n=8) weekly for 20 days. Samples of blood and plasma as well as organ weights and pancreata were collected as outlined above.

B1: α-GCGR: potent monoclonal GCGR blocking antibody, HCVR/LCVR SEQ ID NOs: 86/88 (antibody, V domains shown)
VH: EVQLVESGGGLVQPGGSLRLSCAASGFTFSNYLMNWVRQAPGKGLEWLANIQEDGIEKYYVDSVKGRFTISRDNAKNSLYLQMNSLRAEDTAVYYCAREPSHYDILTGYDYYYGMDVWGQGTTVTVS
VL: DIQMTQSPSSLSASVGDRVTITCRASQGIRNDLGWYQQKPGKAPKRLIYAASSLQSGVPSRFSGSGSGTEFILTVSSLQPEDFATYYCLQYNSNPFTFGPGTKVDIK
- Slc38a5 immunostaining of pancreas sections (Slc38a5 in α-cells; mice, 3 mg/kg, 21 days): detected in a subset of glucagon-positive cells
- Slc38a5 mRNA expression in α-cells (RNA ISH) (Slc38a5 in α-cells; pancreas sections of treated mice): upregulation
- blood glucose levels in Slc38a5−/− mice compared with littermate control mice (Slc38a5−/− mice): to the same extent
- reduction of the expansion of α-cell mass in Slc38a5−/− mice relative to treated control mice (Slc38a5−/− mice): 50%
- plasma insulin levels (Slc38a5−/− mice; WT and Slc38a5−/− mice): No effects
- α-cell mass or number of islets per pancreas area (FIGS. 5H and 5I) (Slc38a5−/− mice; WT and Slc38a5−/− mice): did not affect
